Results from the nanobody polyreactivity screen of Harvey et al. (2022).

assay: yeast display, Sf9 membrane polyspecificity reagent, FACS + sequencing; frameworks hold sequencing errors
Method in brief: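 After 36–48 hours of galactose induction, yeast (Saccharomyces cerevisiae BJ5465) displaying a synthetic nanobody library were stained at 4 °C for 1 hour with 10% biotinylated, detergent-solubilized Sf9 membrane reagent. Streptavidin microbeads enriched the stained cells before FACS sorting into low and high (top ~1%) gates on anti-HA and streptavidin fluorescence. Each clone's polyreactivity label reflects its gate of origin.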

| Sequence | polyreactivity (PSR sort gate) |
| --- | --- |
| QVQLVESGGGLVQAGGSLRLSCAASGRIFYLNAMGWYRQAPGKERQLVATITSGGSTNYADSVKGRFTISRDNAKNTVYLQMNSLKPEDTAVYYCAAGVSWYGPYDYLWFYAFDYWGQGTQVTVSS | low polyreactivity |
| QVQLVESGGGLVQAGGSLRLSCAASGSTSQRNAMGWYRQAPGKERELVAAISRSGGSTSYADSVKGRFTISRDNAKNTVYLQMNSLKPEDTAVYYCNTDRRIYRVWYYYWGQGTQVTVSS | high polyreactivity |
| QVQLVESGGGLVQAGGSLRLSCAASGRTFPFYAMGWYRQAPGKERELVAAINSGGITNYADSVKGRFTISRDNAKYTVYLQMNSLKPEDTAVYYCAAKTAFYRERGYWGQGTQVTVSS | low polyreactivity |
| QVQLVESGGGLVQAGGSLRLSCAASGPIFFINAMGSYRQAPGKEREFLATISWSGGSTYYADSVKGRFTISRDNAKNTVYLQMNSLKPEDTAVYYCNAETYGSRWRRQYGYWGQGTQVTVSS | high polyreactivity |
| QVQLVESGGRLVQEGGSLRLSCAASGSTFKQYAMGWYRQAPGKEWELVAAISRSGSRTYYADSVKGRFTISRDNAKYTVYLQMNSLKPEDTAVYYCAAERRSTAGWLYDYWGQGTQVTVSS | high polyreactivity |
| QVQLVESGGGLLQAGGSLRLSCAASGFTFRNYAMGWYRQAPGKEREFVAAITGRGGSTYYADSVKGRFTISRDNAKNTVYLQMNSLKPEDTAVYYCNAYSGVSFYSSWYGYWGQGTQVTVSS | high polyreactivity |
| QVHLVESWGCLVQAGGSLRLSCAASGSTFTGYAMGWYRHAPGKESEMVAAISRSGGSTSAADSVKGRFTISRDNAKNTVYLQMNSLKPEDTAVYYCAAQVQGTTRDKQRGGIGELDYWGQGTQVTVSS | low polyreactivity |
| QVQLVESGGGLVHAGGSLRLSCAASGSTFPAYAMGWYRQAPGKERELVAGITRGGSTYYADSVKGRFTISRDNAKNTVYLQMNSLKPEDSAVYYCAAYVLPWRGRGQTEYGYWGQGTQVTVSS | low polyreactivity |
| HVQLVESGGGLVQAGGSLRLSCAASGFTFDYNTMGWSRQAPGKEREVVAGISRGGGSTYYADSVKGRFTISRDNAKNTVYLQMNSLKPEDTAVYYCNTVLKRQRKNEYWGQGTQVTVSS | high polyreactivity |
| QVQLVESGGGLVQAGGSLRLSCAASGRTFVEYAMGWYRQAPGKERELVADITISGGRTYYADSVKGRFTISRDNAKNTVYLQMNSLKPEDTAVYYCNAQSYLGVTHRGYIKNGYDYWGQGTQVTVSS | low polyreactivity |
| QVQLVESVGGLVQAGGSLRLSCAASGRTFAYYAMGWYRQAPGKERELVAAISYRGGTTYYADSVKGRFTISRDNSKNTVYLQMYILKQEDTAVYYCAAKVGVSWYGYWGKGTQVTVSS | high polyreactivity |
| QVQLVESGGGLVQAGGSLRLSCAASGIILPTYVMGWYRQAPGKERELVAAISRRGGSTYYADSVKGRFTISRDNAKNTVYLQMNSLKPEDTAVYYCNAVSNPVGSAYDYWGQGTQVTVSS | high polyreactivity |
| QVQLVESGGGLVQAGGSLRLSCAATGSIFPPYGMGWYRRAPGKERELVAVITRSGGSTYYADSVKGRFTISRDNAKNTVYLQMNSLKPEDTAVYYCNVDSTTTFVYVVVSVVYEYDYWGQGTQVTVSS | low polyreactivity |
| QVQLVESGGGLVQAGGSLRLSCAASGSIFWLYAMGWYRQAPGKEREFVAAITTSGSSTRYADSVKGRFTISRDNAKNTVYLQMNSLKPEDTAVYYCAARNRTFFQPTYYYWGQGTQVTVSS | high polyreactivity |
| QVQLVESGGGLVQAGGSLRLSCAASGRTFLYNAMGWYRQAPGKERELVATITWSDDGTYYADSVKGRFTISRDNAKNTVYLQMNSLKPEDTAVYYCAAVYPRTRVKMDYWGQGTQVTVSS | low polyreactivity |
| QVQLVESGGGLVQAGASLRLSCAASASTFKGNAMGWYRQAPGKERELVAAINRSGTSTYYADSVKGRFTISRDNAKNSVYLQMNSLKPEDTAVYYCAKNYFGHRFDYWGQGTQVTVSS | high polyreactivity |
| QVQLVESGGGLVQAGGSLRLSCAATGRNFVYNAMGWYRQAPGKERELVAAITWGGGSTYYADSVKGRFTISRDYAKNTVYLQMNSLKPEDTAVYYCAARGGSYPQDHSPYYEYDYWGQGTQVTVSS | low polyreactivity |
| QVQLVESGGGLVQAGGSLRLSCAASGRTSGINAMGWYRQAPGKERELVAAISSGGRTYYADSVKGRFTISRDNAKNTVYLQMNSLKPEDTAVYYCAAVIHWSLYRRMEYWGQGTQVTVSS | high polyreactivity |
| QVQLVESGGGLVQAGGSLRISCAASGFTFSSYAMGRSRPAPGKERELVAGITIDGNTYYADSVKGRFTISRDNAKNTVYLQMNSLKPEDTAVYYCAAVAYYYGYDYWGQGTQVTVSS | low polyreactivity |
| QVQLVESGGGLVQAGGSLRLSCAASGRICINDMGWYRQAPGKERELVAAIRSDGSTNYADSVKGRFTISRDNAKNTVYLQMNSLKPEDTAVYYCNVDGYYLFVRGYEYWGQGTQVTVSS | low polyreactivity |
| QVQLVESGGGLVQAGGSLRLSCAASGRTFPRYAMGWYRQARGKEREMVAAISGTGGSTYYADSVKGRFTISRDNAKNTFYLQMNSLKPEDTAVYYCAAAFRDGFTRRYGYWGQGTQVTVSS | high polyreactivity |

| Sequence | polyreactivity (PSR sort gate) |
| --- | --- |
| QVQLVESGGGLVQAGGSLRLSCAASGSTLLYYAMGWYRQAPGKERELVAAISSTGSTNYADSVKGRFTISRDNAKNTVYLQMKSLKPEDTAVYYCAADYSVPTSQAYDYWGQGTQVTVSS | low polyreactivity |
| QVQLVESGGGLVQAGGSLRLSCAASGFIFVGYGMGWYRQAPGKERELVAVITASGGSTYYADSVKGRFTISRDYAKKTVYLQMNSLKPEATAVYYCAARVGRYGYSEYYYWGHGTQVTVSS | high polyreactivity |
| QVQLVESGGGLVQAGGSLRLSCAASGSTFSYNAMGWYRQAPGKERELVATITYSGGTTYYADSVKGRFTISRDNAKNTVYLQMNSLKPEDTAVYYCAALYSFSYLSTSFVVEDWYYYWGQGTQVTVSS | high polyreactivity |
| QVQLVESGGGLVKAGGSLRLSCAASGRTFVYYAMGWYRQAPGKERELVAAISGSGGSTYYADSVKGRFTISRDNAKNTVYLQMNSLKPEDTAVYYCAAGPRGRYRYGYWGQGTQVTVSS | high polyreactivity |
| QVQLVESGGGLVQAGGSLRLSCAASGYIFRGYVMGWYRQAPGKERELVAGISRSGSSTYYADSVKGRFTISRDNAKNTVYLQMNSLKPEDTAVYYCAAVRSGIEYGYWGQGTQVTVSS | high polyreactivity |
| QVQLVESGGGLVQAGGSLRLSCDASGNTFHTNAMGWYRQAPGKERELVAAITGGGSTYYADSVKGRFTISRDNAKKTVYLQMNSLKPEDTAVYYCNTDVPYGLDVSDTIDYFYWGQGTKVTVSS | low polyreactivity |
| QVQLVESGGGLVQAGGSLRLSCAASGSIFDGYAMGWYRQAPGKERELVAAISASGVRTYYADSVKGRFTISRDNAKNTVYLQMNSLKPEDTAVYYCAAAVYYGQSVWYYYWGQGTQVTVSS | high polyreactivity |
| QVQLVESGGGLVQAGGSLRLSCAASGILRANAIGWYRQAPGKERELVATINGDGATYADSVKGRFTISRDNAKNTVYLQLNSLKPEDTAVYYCAAGGGWVVKYDYWGQGTQVTVSS | low polyreactivity |
| QVQLVESGGGLVQAGGSLRLSCAASGSIFVANPMGWYRQATGKERELVAVISSGGGSTSYADSVKGRFTISRDNAKNSVYLQMNSLKPEDTAVYYCNRRRYDAGSTMGYWGQGTQVTVSS | low polyreactivity |
| QVQLVESGGGLVQAGGSLRLSCAASGSTFDRYAMGWYRQAPGKERELVAAISHSGGRTYYADSVKGRFTISRDNAKNTVYLQMNSLKPEDTAVYYCAAKSRSGTEAAYGYWGQGTQVTVSS | low polyreactivity |
| QVQLVESGGGLVQAGGSLRLSCAASGSIFPIYAMGWYRQAPGKERELVAALNRSGGSTYYADSVKGRFTISRDNAKNTVYLQMNSLKPEDTAVYYCNADYGYHNQLFWGYYGWSSDHWGQGTQVTVSS | low polyreactivity |
| QVQLVESGGGLVQAGGSLRLSCAASGYTFRYYAMGWYRQAPGKERELVAAINWSGGSTYYADSVKGRFTISRDNAKNTVYLQNNSLKPEDTAVYYCAADPDGDLDIDYDYWGLGTQVTVSS | low polyreactivity |
| QVQLEESGGGLVQAGGSLRLSCAASVSIFGVNVMGWYRQAPGKERELVAAISSGGSTNYADSVKGRFTISGDNEKKTVYLLMISLKPDDTAVYFCIAGLGRLYDYWGQGTQVTVSS | low polyreactivity |
| QVQLVESGGGLVQAGGSLRLSCAASGRILTLNAMGWYRPAPGKERELVASIRSTGRTYYADSVKWRFTISRDNAMNTVYLQMNSLKPEDTAVYYCAADTRYRYGAYPYYEYDYWGQGTQVTVSS | low polyreactivity |
| QVQLVESGGGLVQAGGSLRLSCAASGSTFAYYTMGWYRPGPGKEREMVAAIRGGGRTYYADSVKGRFTISRDNAKNTVYLQMNSLKPEDTAVYYCAATVYVTKGYGYWGQGTQVTVSS | high polyreactivity |
| QVQLVESGGGLVQAGGSLRLSCAASGRIFYWYAMGWYRQAPGKERELVAAISRSGSRTYYPDSVKGRFTISRDNAKNTVYLQMNSLKPEDTAVYYCAAVSGTGTAMDYWGQGTQVTVSS | high polyreactivity |
| QVQLVETGGGLVQAGGSLRLSCAASGSIFASYAMGWYRQAPGKERELVAAITTSGGRTYYADSVKGRFTISRDNAKNTVYLQMNSLKPEDTAVYYCAVRYRGYGYDWGQGTQVTVSS | high polyreactivity |
| QVQLVESGGCLVQAGGSLRLSCAASGRTFAYYAMGWYRQAPGKERELVAAITRGGSTYYADSVKGRFTISRDNAKNTVYLQMNSLKPEDTAVYYCAADTSPYQDDYWGQGTQVTVSS | low polyreactivity |
| QEHLQESGGGLVQAGGDLRLSSPSSGNIFRDYISGCYRQAPGKEREFAAGIDRGANTNYADSVKGRFTISRDNAKNTVYLQMISLKPVDTAVYYCGVHTAIVPEFIYWGQGTQVTVSS | low polyreactivity |
| QVQLVESGGGLVQAGGSLLLSCAASGSIFYSNAMGWYRKAPGKERELVAAIRRSGGSTYYADSVKGRFTISRDNAKYTVYLQMNSLKPEDTAVYYCATTRRVPGEYWGQGTQVTVSS | high polyreactivity |
